In the RNAGym collection of RNA variant scans (doi:10.7554/elife.80360):

B1: HDV Ribozyme (parent)
chain: GGCCGGCAUGGUCCCAGCCUCCUCGCUGGCGCCGGCUGGGCAACAUUCCGAGGGGACCGUCCCCUCGGUAAUGGCGAAUGGGACCCA

Variants of: B1
Test: self-cleavage, relative activity (ratio to wild type); higher = more cleavage; co-transcriptional

Variant | self-cleavage
C33A G74A | 0.0219
C32U A78U | 0.178
C32U A78C | 0.177
C32U G67U | 0.88
C32G G40A | 0.0831
C32G G40C | 0.0755
C32G G53C | 0.213
C32G G53U | 0.196
C32A G68A | 0.185
C33G C49G | 0.0978
C33G C49U | 0.0923
C32G G73C | 0.12
C33A A77U | 0.0923
C33A A77C | 0.0707
C33A A77G | 0.104
C32U U37A | 0.252
C33G A87G | 0.116
C33G A87U | 0.151
C33G A87C | 0.0839
C32U C48U | 0.69
C33A C63U | 0.503
C33A C63G | 0.283
C32G G59A | 0.0489
C32G G59U | 0.0519

Variant | self-cleavage
C32G G81C | 0.0773
C32G G81A | 0.0297
C32U C64U | 0.831
C32U U69A | 1.13
C33G A42U | 0.0678
C32G G74U | 0.125
C32G G74C | 0.166
C32G G74A | 0.126
C32A U60G | 0.138
C33A G76A | 0.228
C33A G76U | 0.326
C33A G76C | 0.251
C32U G54C | 0.992
C32U G54U | 0.923
C32U A45U | 0.631
C32U A45G | 0.755
C32U A45C | 0.291
C33A C36U | 0.0396
C33A C36G | 0.208
C32A U46A | 0.185
C32U G74A | 0.459
C32U U60C | 0.7
C32A G67A | 0.211
C32A G67C | 0.154

Variant | self-cleavage
C32U G55U | 0.935
C32U G55C | 0.866
C32A C66G | 0.213
C32A C66A | 0.181
C32U G82A | 0.354
C32U G82C | 0.253
C33A C85U | 0.277
C33A C85G | 0.309
C32U C66A | 0.991
C32U C66G | 0.739
C33G A83G | 0.0963
C33G A83U | 0.162
C32U A43C | 0.196
C33G C44G | 0.101
C32U G81A | 0.158
C32U G81U | 0.185
C32A G53C | 0.0923
C32A G53U | 0.214
C32G G68U | 0.089
C32G G68A | 0.185
C32G G50C | 0.262
C32G G50A | 0.157
C32A U65C | 0
C32A U65A | 0.309

Variant | self-cleavage
C32G G67U | 0.0831
C32G G67A | 0.16
C32U G80A | 0.256
C32U G80C | 0.132
C33G C48U | 0.13
C33A A83G | 0.144
C32A G80A | 0.183
C32A G80U | 0.0472
C32A G80C | 0.161
C33A C61G | 0.237
C33A C61U | 0.265
C32G U46A | 0.0332
C32A U69G | 0.271
C32A U69A | 0.0652
C33G A77U | 0.106
C33G C36A | 0.107
C33G C36G | 0.128
C32G A87U | 0.135
C32G A87C | 0.0545
C32G A87G | 0.0665
C32U C75U | 0.315
C32U G38A | 0.216
C32G U37A | 0.293
C32U A71C | 0.665

Variant | self-cleavage
C32G U47C | 0.0852
C33A G40A | 0.214
C32A G38A | 0.0665
C32A G38C | 0.0817
C33A A71G | 0.289
C33A A71U | 0.0282
C33A U79C | 0.0893
C32U A70G | 0.85
C32U A70U | 0.892
C32U A70C | 0.68
C32G C84G | 0.0594
C32G U69G | 0.0504
C32G U69A | 0.148
C32G U69C | 0.0639
C32A G55U | 0.219
C32A G55A | 0.145
C32A G55C | 0.133
C32U C58A | 1
C32G G82A | 0.0997
C32G G82U | 0.228
C32U G35A | 0.326
C32G C57G | 0.225
C32G A51U | 0.128
C33A G50A | 0.215

Variant | self-cleavage
C33A G50C | 0.203
C33A G50U | 0.295
C33A C44U | 0.0707
C32A G76C | 0.192
C32A G76U | 0.302
C32A G76A | 0.214
C33G A78U | 0.0875
C32A U72G | 0.178
C32A U72A | 0.156
C32A U72C | 0.133
C32G A77U | 0.123
C32G A77G | 0.0475
C32G A77C | 0.0536
C32A G73U | 0.0959
C32A G73A | 0.138
C32A G73C | 0.0906
C32A G40C | 0.134
C32A G40U | 0.22
C32A C75U | 0.0791
C32A C75G | 0.285
C32A C84G | 0.111
C32U G40U | 0.758
C32A G39U | 0.237
C32A G39C | 0.166

Variant | self-cleavage
C32G C62G | 0.277
C32G C62U | 0.117
C32G C62A | 0.148
C32A G34U | 0.0791
C32A G34C | 0.208
C32A G34A | 0.032
C32G G76U | 0.122
C32G G76C | 0.224
C32U A83U | 0.456
C33A U72A | 0.208
C32G G54A | 0.0898
C32G G54C | 0.086
C32U C86U | 0.686
C33A C75G | 0.145
C33A C84U | 0.193
C33A C84A | 0.0811
C32G G80U | 0.0831
C32A G54A | 0.212
C32A G54C | 0.356
C33A A43U | 0.163
C32A G59U | 0.095
C33A C48A | 0.314
C33G C41A | 0.185
C32A G81A | 0.0779

Variant | self-cleavage
C32A G81C | 0.0475
C32A G81U | 0.136
C32U G50C | 0.764
C32G U72G | 0.0519
C33G A71G | 0.178
C33G A71C | 0.104
C32U C63A | 0.701
C32U C63U | 0.817
C33A C86A | 0.277
C32A G74A | 0.148
C32U C61U | 0.817
C32U C61A | 0.841
C33A A51G | 0.289
C32A C63A | 0.232
C32A C63G | 0.095
C33A U46C | 0.0875
C33A U46A | 0.128
C33G A45G | 0.447
C33A U60A | 0.193
C33A A78G | 0.161
C33G A70U | 0.383
C32G C66G | 0.0583
C32G C66A | 0.113
C33A | 0.29

Variant | self-cleavage
C33G | 0.173
C33A G52A | 0.229
C33A G52U | 0.161
C33A G52C | 0.284
C32U C49U | 0.803
C32G G39A | 0.157
C33A G67A | 0.273
C32G C58A | 0.189
C32A U47A | 0.322
C32A U47G | 0.246
C32G A45C | 0.0707
C32A C62A | 0.151
C33A C64G | 0.289
C33A C64U | 0.086
C33A C64A | 0.339
C32U G39A | 0.192
C32U G73C | 0.261
C32U G73U | 0.267
C32G A56G | 0.0852
C32G A56C | 0.0739
C32A C85A | 0.341
C32A C85G | 0.252
C33A A45U | 0.232
C33A A45C | 0.133

Variant | self-cleavage
C32G C61G | 0.0604
C32G C61A | 0.121
C32G C61U | 0.026
C32G C48U | 0.0449
C33G A56U | 0.228
C33G A56G | 0.222
C33G A56C | 0.113
C32U A56C | 1.12
C32G C63A | 0
C32G G35A | 0.154
C32G C41U | 0.119
C32G C33A | 0.0615
C32G C33G | 0.0906
C32U U79C | 0.201
C32A C57U | 0.318
C32A C57A | 0.295
C32A C57G | 0.389
C33A C57U | 0.46
C32A G82U | 0.104
C32U G68A | 0.888
C32U G68U | 0.776
C32U A51C | 0.541
C32U A51G | 0.92
C32G C86G | 0.119

Variant | self-cleavage
C32G C86A | 0.18
C32U C44A | 0.243
C32G C44U | 0.0665
C32G C44A | 0.0791
C32U U72G | 0.494
C32U U72A | 0.692
C32U C36G | 0.0923
C32A U37G | 0.166
C32A U37A | 0.0627
C33A G38U | 0.153
C33A G38A | 0.0386
C32G A42C | 0.0678
C33A C49A | 0.364
C33A C49U | 0.212
C33A G54C | 0.222
C33A G54U | 0.198
C33A G53A | 0.264
C33A G53U | 0.277
C32A G35A | 0.122
C32G C64U | 0.109
C32U G59U | 0.795
C32U G59A | 0.963
C33A G73A | 0.147
C33A G73U | 0.233

Variant | self-cleavage
C32U U65C | 0.91
C32U U65A | 1.08
C32U U65G | 0.956
C33A U69C | 0.342
C33A U69G | 0.287
C32A C86A | 0.356
C32G G55C | 0.136
C32G G55A | 0.0841
C32G G55U | 0.0911
C32U A77G | 0.73
C32U A87G | 0.787
C32U A87U | 1.03
C32G G38C | 0.0462
C33A G39C | 0.0678
C33A G39U | 0.138
C33G A51G | 0.111
C33A G68C | 0.0449
C32U C62U | 1.13
C32U C62A | 0.906
C33A A56G | 0.324
C33A A56C | 0.339
C33A A56U | 0.475
C32U A42C | 0.233
C32G U60A | 0.131

Variant | self-cleavage
C33A G80U | 0.136
C33A G80C | 0.16
C32G U65G | 0.119
C33A A42G | 0
C32U C84U | 0.763
C32U C84G | 0.399
C32G A78U | 0.0811
C32G A78G | 0.0536
C32G A78C | 0.0665
C33A G34A | 0.166
C33A G59U | 0.338
C33A G59C | 0.521
C33A U47G | 0.378
C33A U65C | 0.158
C33A U65G | 0.244
C32U G53C | 0.846
C32U G53U | 0.811
C33A G82C | 0.17
C32U C85G | 0.831
C32U C85A | 0.849
C32G A70G | 0.0554
C32G A70U | 0.032
C32G C49A | 0
C32U U46G | 0.646

Variant | self-cleavage
C32U U46C | 0.554
C32G A71G | 0.0415
C32G A71C | 0
C33G C57G | 0.214
C33G C57A | 0.147
C33G C57U | 0.166
C33G C58G | 0.185
C32G C36U | 0.111
C32G U79C | 0.0205
C32U C41G | 0.429
C32U C41U | 0.629
C32G A83C | 0.0346
C32G A83G | 0
C32A G50U | 0.178
C32A C58U | 0.208
C32A C58G | 0
C32A C58A | 0.208
C33A G35C | 0.133
C32U C33A | 0.161
C32U C33U | 0.166
C32U C33G | 0.117
C33A G55U | 0.349
